Columns and labels:
[1] = target: GST fused to the TRPM8 C-terminal tail; test: pull-down; as a4, with 1, 10 or 100 nM testosterone during incubation of in vitro translated AR with the N- or C-terminal tail of TRPM8
[2] = target: GST fused to the TRPM8 N-terminal tail; test: pull-down; purified GST-fusion proteins of the TRPM8 tails on beads incubated overnight at 4 °C with in vitro translated AR proteins, no testosterone; fluorescence imaging or anti-AR immunoblot; normalised to the input

Chain of in vitro translated AR (P10275 whole entry, the tested form may be a part): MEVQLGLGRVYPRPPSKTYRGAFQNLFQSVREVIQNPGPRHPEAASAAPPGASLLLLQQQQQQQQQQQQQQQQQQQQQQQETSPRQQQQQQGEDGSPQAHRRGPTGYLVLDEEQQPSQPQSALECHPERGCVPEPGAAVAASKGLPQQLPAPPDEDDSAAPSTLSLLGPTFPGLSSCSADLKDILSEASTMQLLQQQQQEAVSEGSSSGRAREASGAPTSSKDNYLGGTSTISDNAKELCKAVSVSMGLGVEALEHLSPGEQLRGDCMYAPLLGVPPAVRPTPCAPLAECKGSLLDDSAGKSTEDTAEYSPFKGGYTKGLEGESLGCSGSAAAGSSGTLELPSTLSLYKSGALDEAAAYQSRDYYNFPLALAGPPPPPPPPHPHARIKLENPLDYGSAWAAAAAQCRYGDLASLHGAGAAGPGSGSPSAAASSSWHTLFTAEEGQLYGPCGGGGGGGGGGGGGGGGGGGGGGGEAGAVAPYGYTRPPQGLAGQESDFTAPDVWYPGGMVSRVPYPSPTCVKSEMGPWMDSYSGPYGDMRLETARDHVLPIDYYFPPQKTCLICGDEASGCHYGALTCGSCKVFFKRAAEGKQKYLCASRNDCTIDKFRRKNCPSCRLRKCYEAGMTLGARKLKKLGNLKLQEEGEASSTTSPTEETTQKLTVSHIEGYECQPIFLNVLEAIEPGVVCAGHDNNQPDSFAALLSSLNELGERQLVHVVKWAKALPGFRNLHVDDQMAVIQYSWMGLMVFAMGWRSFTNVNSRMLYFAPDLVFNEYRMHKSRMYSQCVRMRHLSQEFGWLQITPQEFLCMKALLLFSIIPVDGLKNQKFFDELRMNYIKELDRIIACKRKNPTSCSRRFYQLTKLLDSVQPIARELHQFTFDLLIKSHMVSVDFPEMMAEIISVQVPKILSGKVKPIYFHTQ

In the case of “in vitro translated AR (from UniProt P10275 1-920) (natural protein)”, the percent decrease of pulled-down AR with 1 nM testosterone [1] was 43%, the percent decrease of pulled-down AR with 10 nM testosterone [1] was 65.6% and the percent decrease of pulled-down AR with 100 nM testosterone [1] was 93.1%. For the same substance, the percent stronger pull-down by M8-Nt than by M8-Ct [2] was 48%.

Reference: paper PMC6733924
